According to patent US20180111967A1 (PIONEER HI BRED INTERNATIONAL, published 2018):

Target: the molecule itself
Test: NMR solution structure (self-association, homodimer)
Description: For NMR data collection PIP-72Aa (SEQ ID NO: 2) was used at 0.7 mM formulated in 20 mM MES, pH 6.5, 100 mM NaCl, and 5 mM CaCl₂. D₂O and DSS (4,4-dimethyl-4-silapentane-1-sulfonic acid) were added to 10% and 50 μM final concentrations, respectively. This was then loaded into a 4 mm NMR tube (Shigemi). Data collection was at 25° C. on a Bruker 800 MHz spectrometer equipped with a cryo-probe (Monleon, D. et al. 2002, J Struct Funct Genomics 2: 93).
A NOESY peak list containing expected intra-residue, sequential and α-helical medium range NOE peaks was initially generated and manually edited by visual inspection of the simultaneous NOESY (100 ms mixing time) and 13C-edited aromatic NOESY (100 ms mixing time) spectra. NOEs were assigned using matching tolerances of 0.030, 0.025 and 0.40 ppm for indirect 1H, direct 1H and heavy atom 13C/15N, respectively. Subsequent manual peak picking was used to identify remaining, primarily long-range NOEs. In addition, backbone dihedral angle constraints were derived from chemical shifts (Shen, Y. et al. 2009 J Biomol NMR 44:213) for residues located in well-defined secondary structure elements. The initial structure was refined in explicit solvent using standard methods (Linge, J. P. et al. 2003 Proteins-Structure Function and Bioinformatics 50:496).

B1: PIP-72Aa (Pseudomonas Insecticidal Protein-72Aa) polypeptide of SEQ ID NO: 2 (other)
chain: MGITVTNNSSNPIEVAINHWGSDGDTSFFSVGNGKQETWDRSDSRGFVLSLKKNGAQHPYYVQASSKIEVDNNAVKDQGRLIEPLS
modifications: uniformly 15N,13C isotope labeled
notes: Insecticidal protein from Pseudomonas chlororaphis strain SS143D5; For NMR it was expressed in E. coli with an N-terminal His tag, which was removed by proteolysis, so untagged PIP-72Aa was used; also called IPD072Aa
Q: Does B1 bind?
A: Result: binds
